Test results reported in patent publication US20240376151A1, “STAPLED PEPTIDES AND METHODS THEREOF” (FOG PHARMACEUTICALS, INC., priority 2022, published 2024).

Molecular target: T1, beta-catenin (Homo sapiens, UniProt P35222)
T1 construct: made in house; host or cells: E. coli BL21 (DE3) pLysS
T1 sequence (P35222 134-665): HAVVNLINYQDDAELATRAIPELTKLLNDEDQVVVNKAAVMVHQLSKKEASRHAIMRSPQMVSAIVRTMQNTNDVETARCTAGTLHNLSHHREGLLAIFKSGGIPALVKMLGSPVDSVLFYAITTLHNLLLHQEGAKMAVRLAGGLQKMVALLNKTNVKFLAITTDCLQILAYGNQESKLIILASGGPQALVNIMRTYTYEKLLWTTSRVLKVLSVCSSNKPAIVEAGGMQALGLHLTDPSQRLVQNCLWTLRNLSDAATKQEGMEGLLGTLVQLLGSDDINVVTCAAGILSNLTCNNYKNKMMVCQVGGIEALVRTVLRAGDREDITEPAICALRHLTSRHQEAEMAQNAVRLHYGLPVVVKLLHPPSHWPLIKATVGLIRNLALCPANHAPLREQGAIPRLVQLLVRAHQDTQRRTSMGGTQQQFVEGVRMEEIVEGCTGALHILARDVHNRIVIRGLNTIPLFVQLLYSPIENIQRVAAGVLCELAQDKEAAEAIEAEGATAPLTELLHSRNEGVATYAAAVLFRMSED
Experiment: Phage Library Screening with NGS, beta-catenin
Type: binding
Settings: for Target Concentration 10 (phage screen NGS readout): beta-catenin target concentration 10; for Target Concentration 10 (phage screen NGS readout) / Target Concentration 30 (phage screen NGS readout) / Target Concentration 100 (phage screen NGS readout) / Target Concentration 300 (phage screen NGS readout): no competitor; for Target Concentration 30 (phage screen NGS readout): beta-catenin target concentration 30; for Target Concentration 100 (phage screen NGS readout): beta-catenin target concentration 100; for Target Concentration 300 (phage screen NGS readout): beta-catenin target concentration 300; for Target Concentration 1000 (phage screen NGS readout): beta-catenin target concentration 1000

Compound | Target Concentration BLANK (phage screen NGS readout) (first column) | Target Concentration BLANK (phage screen NGS readout) (fourth column) | Target Concentration BLANK (phage screen NGS readout) (second column) | Target Concentration BLANK (phage screen NGS readout) (third column) | Target Concentration 10 (phage screen NGS readout) | Target Concentration 30 (phage screen NGS readout) | Target Concentration 100 (phage screen NGS readout) | Target Concentration 300 (phage screen NGS readout) | Target Concentration 1000 (phage screen NGS readout) (first 1000 column) | Target Concentration 1000 (phage screen NGS readout) (second 1000 column)
DPAFLDCHIAAWTCNEF | 0 | 0 | 0 | 0 | 0 | 1 | 10 | 15 | 28 | 15
DPAILECHVAALDCQMW | 0 | 0 | 2 | 0 | 0 | 2 | 40 | 55 | 98 | 81
CC(=O)N[C@@H](CC(=O)O)C(=O)N1CCC[C@H]1C(=O)N[C@@H](C)C(=O)N[C@@H](CC(C)C)C(=O)N[C@@H](Cc1c[nH]c2ccccc12)C(=O)N[C@@H](CCC(N)=O)C(=O)N[C@@H](CS)C(=O)N[C@@H](CCC(=O)O)C(=O)N[C@@H](Cc1c[nH]cn1)C(=O)N[C@@H](C)C(=O)N[C@@H](C)C(=O)N[C@@H](CC(C)C)C(=O)N[C@@H](CC(C)C)C(=O)N[C@@H](CS)C(=O)N[C@@H](CC(=O)O)C(=O)N[C@H](C(=O)N[C@@H](Cc1c[nH]cn1)C(N)=O)C(C)C | 0 | 0 | 2 | 1 | 13 | 27 | 122 | 158 | 246 | 246
DPAIADCDWAAEHCDLL | 0 | 1 | 1 | 4 | 0 | 6 | 118 | 266 | 325 | 417
DPAEWQCEHAALLCEQQ | 0 | 6 | 2 | 0 | 78 | 201 | 907 | 1681 | 1740 | 1609
DPAYWDCTHAALLCNLD | 0 | 0 | 1 | 2 | 3 | 14 | 152 | 42 | 543 | 409
DPAQWACEHAALLCSMD | 0 | 0 | 1 | 0 | 6 | 35 | 226 | 419 | 326 | 432
DPAIMACYEAAYLCDYI | 1 | 1 | 0 | 0 | 2 | 4 | 29 | 85 | 111 | 150
DPAFLTCHIAAWACSEQ | 0 | 0 | 2 | 1 | 0 | 1 | 21 | 15 | 52 | 25
DPAEAECILAAHICNIS | 0 | 0 | 0 | 0 | 10 | 0 | 37 | 39 | 51 | 52
DPADTECILAAHFCHYF | 0 | 0 | 2 | 0 | 0 | 1 | 39 | 81 | 78 | 49
DPAEWDCMHAALICEVH | 0 | 0 | 0 | 0 | 0 | 10 | 55 | 54 | 67 | 89
DPADYDCILAAHICTNI | 0 | 0 | 0 | 0 | 2 | 18 | 70 | 147 | 118 | 122
DPAHWRCEHAALLCWYN | 0 | 0 | 0 | 2 | 13 | 6 | 51 | 132 | 140 | 149
DPAYWVCEHAALLCTDY | 3 | 0 | 3 | 1 | 5 | 18 | 85 | 337 | 283 | 227
DPAADDCVLAAHVCAYF | 7 | 0 | 1 | 0 | 8 | 46 | 144 | 397 | 407 | 343
DPAELACEWAAIHCELV | 0 | 0 | 0 | 0 | 0 | 2 | 41 | 94 | 69 | 75
DPAALSCYQAAFHCQYY | 0 | 0 | 0 | 0 | 0 | 0 | 1 | 5 | 14 | 17
